Measured values reported in a protein production outcome set (Wang et al. 2014).

Assay: label from the status in PepcDB records

With “MRSVVSFNEGWSFHEGFGQRLLETFDTAKSVSLPHTAVELPFSYFDETSYQRAFTYQKVLRWLPEFEGREVSLVFDAAMADSVVYLNGEEIIAHKDGYTPFEARLTGKLVKGENLVTVKIDGSENPDIPPFGGRIDYLTYAGIYRDVWLKVTDPVSIRNLKIETTDVLRPEKSATIRVDIANPEGRSFSATVTATLKQADGTVVATAATETIGSRTTLSFGGLTGIALWDITDPKLYDVTVELRTEHGSDRISTRFGFRTAEFTPEGFLLNGKPLKLRGLNRHQAFPYVGYAAGRSAQERDADIMKTVLKCNIVRTSHYPQSKWFLDRCDAIGLLVFEEIPGWQHIGDADWQQESIKNVRRMIERDWNHPSIIIWGVRINESQDDHDFYAETNRLARELDSTRQTGGVRYLTESELLEDVYTMNDFILGNEELPGANRPRTALRAQQENTGLSHKVPYLITEFNGHMHPTKIYDQEQRQAEHVRRHLEVLNAAYGDPDISGAIGWCMFDYNTHKDFGSGDRICYHGVMDMFREPKFAAYAYISQCDPSEEIVMKPVTFWARGERNIGGVLPLIILTNCDEVELQYGALSKRIGPDRENYPHLPHPPVVLDHRHFTADELGTWGLEWIDGTFTGYIGGEPVASLTLAADPLPTTLEVVADSSTLRARERDSTRVIIRALDQRGQRLPFMNDSISLKVHGPARIVGPTNVPLQGGTAGFWLEATGFTGEITVEAISTRFAPVTLGVTAA” the protein production was “failed”.

For “PCHHRITLDEFYQLFTNNKNIHLIDVRSTKEHQIQNIGGIVLPLDELPQRLHELNPNRLIILYCQSGTRSKMALDILLKAGFASVKYIENGLKGVTDNYNKDMPQ”, the protein production was “failed”.

With “MADDQGRGRRRPLNEDDSSTSRGSGDGPRVKVFRGSSSGDPRADPRIEASRERRALEEAPRREGGPTERKPWGDQYDYLNTRPAELVSKKGTDGVPVMLQTNFFRLKTKPEWRIVHYHVEFEPSIENPRVRMGVLSNHANLLGSGYLFDGLQLFTTRKFEQEITVLSGKSKLDIEYKISIKFVGFISCAEPRFLQVLNLI” the protein production was “failed”.

For “RATPSGMLRINASVQAGRAVAPLVLAFLRRYPEMRVDLVTEGRLLDIVAEGFDMGIRPADLVPRDMIALPLGLPVRHAVVASPDWLVRHPEPRSPADLDPDACLRVRLPNGALLRWPFQKDGVPLPFEASGRLTVDEAAIAR”, the protein production was “failed”.

In the case of “MSFSRHIGVTMIDVVDLSRLQFALTAMYHFLFVPLTLGMAFLLAIMESMYVMTNKQIYKDMTKFWGKLFGINFALGVATGLTMEFQFGTNWSYYSHYVGDIFGAPLAIEALVAFFLESTFVGLFFFGWDRLSKRQHLAVTWLVALGSNFSALWILIANGWMQNPVGADFNFETMRMEMVSFSEVVLNPVAQVKFVHTVASGYTCGAMFILGISSYYLLKGRDIAFARRSFAIAASFGIAAILSTIVLGDESGYELGEVQKVKLAAIEAEWHTEPAPAAFTLFGVPNQETMHTDYAIKIPYVMGIIATRSFDEQVTGLRDLRDEHVERIRGGMYAYELLEKLRAGDKSEENMTAFDEVKGDLGYGLLLKRYTDNVVDATEEQIQAAADDSIPTVWPLFWSFRIMVACGFIMLFVFGAAFIQTCRQKIEQKQWILKAALLSIPLPWIAIEAGWFVAEYGRQPWAVGEILPVHVAASALTAGEIWTSLFAILALYTVFLIAEVYLMLKFARKGPSSLKTGRYHFEQNADSVEDKVSRQVEA”, the protein production is reported as “failed”.

In the case of “LSEVEFVEFQKENFSLLIDARSPREFLHSHLIGALNFYALNDEEYQEIGTIYKKNQALAKAMGASYICQNTTKHILEITQNFRIGEKVGIYCSRGGLRSKSIAVILSELGFRVVRLKGGFKAYRTFVTHYFEN”, the protein production is reported as “failed”.

In the case of “MEKRLDYITDLMALGPTANARTIQRRQTAHRLAIAEAWQVKPGEKILEIGCGQGDLSAVLADQVGSSGHVTGIDIASPDYGAPLTLGQAWNHLLAGPLGDRLTVHFNTNLSDDLGPIADQHFDRVVLAHSLWYFASANALALLFKNMAAVCDHVDVAEWSMQPTALDQIGHLQAAMIQGLLYAIAPSDVANIRTLITPDTLAQIAHDNTWTYTAGTIVEDPTLDDAHWEIATTNALLTELKLSTDLRDRVKPLLEAMSHNGTASLATFTGRITF”, the protein production is reported as “not failed”.

With “MGENYKFFNHKDCEFFPCHKTNKPEEFNCLFCYCPLYALGENCGGNFKYTDKGIKDCSSCILPHKKDNYNYIMSKFQDLVKITSKKLEHHHHHH” the protein production was “failed”.
